T1: human LAG-3 (cell surface) (human, UniProt P18627 23-525)
T1 construct: whole, on cells; also called CHO-human LAG-3
T1 sequence (looked up): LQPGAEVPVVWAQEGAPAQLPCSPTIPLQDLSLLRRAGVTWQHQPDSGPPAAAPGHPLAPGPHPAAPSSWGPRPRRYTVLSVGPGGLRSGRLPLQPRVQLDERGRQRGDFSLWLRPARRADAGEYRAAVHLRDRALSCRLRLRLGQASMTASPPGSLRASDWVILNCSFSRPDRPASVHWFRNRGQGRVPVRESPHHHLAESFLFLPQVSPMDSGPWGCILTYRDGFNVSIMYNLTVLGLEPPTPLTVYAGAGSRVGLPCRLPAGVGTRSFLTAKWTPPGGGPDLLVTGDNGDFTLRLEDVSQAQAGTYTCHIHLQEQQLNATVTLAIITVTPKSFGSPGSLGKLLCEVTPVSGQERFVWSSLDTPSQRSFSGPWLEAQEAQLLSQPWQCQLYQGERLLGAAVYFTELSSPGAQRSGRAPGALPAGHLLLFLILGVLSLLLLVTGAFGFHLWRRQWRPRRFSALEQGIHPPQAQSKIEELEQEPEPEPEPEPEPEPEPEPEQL

T2: human LAG-3 full-length extra loop peptide (human, conjugated to biotin)
T2 construct: Exposed extra loop of the immunoglobulin-like first extracellular domain of LAG-3; also called LAG-3 extra loop
T2 peptide: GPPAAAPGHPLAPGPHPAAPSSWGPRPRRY

T3: rhesus monkey LAG-3, clone pa23-5 (cell surface, CHO) (rhesus monkey, UniProt P18627 24-525 (human entry))
T3 construct: also called CHO-rhesus LAG3
T3 chain: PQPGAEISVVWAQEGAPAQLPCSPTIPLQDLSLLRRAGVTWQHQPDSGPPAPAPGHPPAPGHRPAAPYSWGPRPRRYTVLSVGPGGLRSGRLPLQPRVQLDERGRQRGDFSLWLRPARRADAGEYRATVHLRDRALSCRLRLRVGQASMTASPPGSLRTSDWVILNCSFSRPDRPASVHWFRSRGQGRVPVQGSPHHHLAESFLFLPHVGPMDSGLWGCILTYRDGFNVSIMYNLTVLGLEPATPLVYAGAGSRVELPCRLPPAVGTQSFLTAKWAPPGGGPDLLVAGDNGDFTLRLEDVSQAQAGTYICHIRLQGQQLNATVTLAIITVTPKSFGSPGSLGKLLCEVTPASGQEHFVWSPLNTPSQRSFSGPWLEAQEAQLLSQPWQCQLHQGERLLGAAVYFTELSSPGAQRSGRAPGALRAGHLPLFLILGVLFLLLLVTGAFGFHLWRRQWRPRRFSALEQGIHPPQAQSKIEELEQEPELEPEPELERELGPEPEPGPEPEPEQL


Columns and labels:
[1] = molecular target: T1, human LAG-3 (cell surface); assay: flow cytometry, activated human CD4+ T cells
Procedure: To test the ability of the antibodies to bind to cell surface LAG-3 protein, the antibodies were incubated with a CHO cell line that had been transfected to express human LAG-3 on the cell surface. The 25F7, 26H10, 25E3, 8B7, 11F2 and 17E5 monoclonal antibodies were serially diluted with cold lx PFAE buffer (1×PBS+2% FBS, 0.02% sodium azide, 2 mM Na EDTA). For the binding reaction, 50 μl of diluted antibody solution was added to a 50 μl cell suspension containing 2×10⁵ cells and the mixture was incubated on ice for 30 minutes. The cells were then washed two times with 1×PFAE buffer. A 1:100 dilution of FITC-labeled goat anti-human kappa light chain antibody (Bethyl Laboratories, Inc., Cat. # A80-115F) was added and the mixture was incubated for 30 minutes at 4° C., followed by washing twice with cold 1×PFAE buffer. After the final wash, 150 μl of cold 1×PFAE containing 10 μg/mL propidium iodide (Roche Applied Science, Cat #1 348 639) was added to each solution and analysis of antibody binding was carried out by flow cytometry using a FACScalibur flow cytometer (BD Bioscience).
To test the ability of the antibodies to bind to native human LAG-3 on the surface of activated human T cells, resting CD4⁺ T cells were isolated from purified peripheral blood mononuclear cells and subjected to three days of stimulation with a combination of anti-CD3 and anti-CD28 antibodies affixed to polystyrene beads. The 25F7, 8B7 and 26H10 monoclonal antibodies were serially diluted with cold 1×PFAE buffer (1×PBS+2% FBS, 0.02% sodium azide, 2 mM Na EDTA). For the binding reaction, 50 μl of diluted antibody solution was mixed with 50 μl of PE-labeled anti-human CD4 (BD Bioscience, Cat # 555347). Activated T cells were processed by the same protocol described above. The analysis of antibody binding was conducted as described above.

[2] = molecular target: T2, human LAG-3 full-length extra loop …; assay: ELISA on human full-length extra loop peptide
Procedure: To further examine binding of these antibodies to the extra loop peptide region, additional ELISA assays were performed. In an ELISA assay using the human full-length extra loop peptide (SEQ ID NO: 79), EC₅₀ values for binding were determined for 25E3, 25F7 and 8B7. Additionally, a similar peptide ELISA was conducted using the full length extra loop peptide sequence from rhesus monkey LAG-3, having the sequence […] (SEQ ID NO: 90), and EC₅₀ values for binding were determined for 25F7 and 8B7. […] Moreover, antibodies 25F7 and 8B7 also bind to the rhesus LAG-3 extra loop peptide region, albeit less well compared to the human sequence, which may be due to the species sequence divergence in this polypeptide. The results also confirm that the 26H10 antibody is not capable of recognizing the LAG-3 extra loop peptide.

[3] = molecular target: T3, rhesus monkey LAG-3, clone pa23-5 (cell …); assay: flow cytometry, CHO cells expressing rhesus LAG-3
Description: The cDNA of clone pa23-5 was inserted into an expression construct, which was transfected into CHO-S suspension cells by nucleofection (Amaxa). Rhesus LAG-3 expression by sorted, selection drug-resistant clones was verified by FACS analysis. This clonal CHO cell line over-expressing rhesus LAG-3 was used in similar FACS assays to those described above to measure antibody cross reactivity to the monkey protein. Briefly, the 25F7, 8B7 and 26H10 monoclonal antibodies were serially diluted with cold 1×PFAE buffer (1×PBS+2% FBS, 0.02% sodium azide, 2 mM Na EDTA). For the binding reaction, 50 μl of diluted antibody solution was added to a 50 μl cell suspension containing 2×10⁵ cells and the mixture was incubated on ice for 30 minutes. The cells were processed by the same protocol described above. The analysis of antibody binding was conducted as described above.

| Binder | EC50 [1] [nM] | binding result [2] | EC50 [3] [nM] | EC50 [2] [nM] |
| --- | --- | --- | --- | --- |
| 26H10 human monoclonal antibody (antibody, IgG1, V domains shown, also called 26H10-FITC) VH: QVQLVESGGGVVQPGRSLRLSCAASGFTFSSYGMHWVRQAPGKGLEWVAVIWYDGSNKYYADSVKGRFTISRDNSKNTLYLQMNSLRAEDTAVYYCAREWAVASWDYGMDVWGQGTTVTVSS VL: not shown | 0.41 to 0.84 | no binding | 4.68 |  |
| 25E3 human monoclonal antibody (antibody, IgG1, V domains shown) VH: EVQLVESGGGVVRPGGSLRLSCAASGFTFDDYGMSWVRQAPGKGLEWVSGINWNGGSTYYADSVKGRFTISGDNAKNSLYLQMNSLRAEDTALYYCTTGGYWGQGTLVTVSS VL: AIQLTQSPSSLSASVGDRVTITCRASQGIRSALAWYQQKPGKAPKLLIYDASSLESGVPSRFSGSGSGTDFTLTISSLQPEDFATYYCQQFNSYPYTFGQGTKLEIK |  |  |  | 0.55 |
| 25F7 human monoclonal antibody (antibody, IgG1, V domains shown, also called 25F7-FITC (IgG1 version)) VH: QVQLQQWGAGLLKPSETLSLTCAVYGGSFSDYYWNWIRQPPGKGLEWIGEINHNGNTNSNPSLKSRVTLSLDTSKNQFSLKLRSVTAADTAVYYCAFGYSDYEYNWFDPWGQGTLVTVSS VL: EIVLTQSPATLSLSPGERATLSCRASQSISSYLAWYQQKPGQAPRLLIYDASNRATGIPARFSGSGSGTDFTLTISSLEPEDFAVYYCQQRSNWPLTFGQGTNLEIK | 0.27 to 0.45 |  | 22.7 | 0.29 to 0.95 |
| 8B7 human monoclonal antibody (antibody, IgG4, V domains shown, also called 8B7-FITC) VH: QVQLQQWGAGLLKPSETLSLTCAVYGGSFSGYYWSWIRQPPGKGLEWIGEINHRGNTNCNPSLKSRVTISGDTSKKQFALKLNSVTAADTAVYYCARGYDILTGYYEDSWGPGTLVTVSS VL: EIVLTQSPATLSLSPGERATLSCRASQSVSSYLAWYQQKPGQAPRLLIYNASNRATGIPARFSGSGSGTDFTLTISSLEPEDFAVYYCQQRSNWPLTFGGGTKVEIK | 0.69 to 1.8 |  | 10 | 0.28 to 1.35 |

From patent US20200231671A1 (E R SQUIBB AND SONS L L C, published 2020)
